Assay results as given in US20260015316.
pKd: −log10 of the molar value.

Test system: ONECUT2 (OC2) HOX domain
Assay: SPR
Settings: OC2 HOX fragment; DNA probe sequence not given

PEG10 promoter OC2 binding motif probe
pKd: 9.00
